Measurements taken from US20240209061A1, “FUSION PROTEINS AND USES THEREOF” (Pfizer Inc., priority 2020, published 2024).

Columns and labels:
[1] = system: peripheral blood mononuclear cells (PBMC); assay: RESTORE cytokine release assay in absence of TCR stimulation; format: cell-based, human; parameters: IFNγ: unit not given beside the values
Method: The ability of variant CD80-Fc fusion proteins to promote cytokine release in the absence of TCR stimulation was assessed in the RESTORE (RESetting T cells to Original Reactivity) assay (Römer et al, Blood, 2011). Freshly isolated peripheral blood mononuclear cells (PBMC) from whole blood of several healthy donors were cultured for 48 hours at […] within RPMI1640 media supplemented with 10% autologous plasma, 10 mM HEPES, 1× GlutaMAX, 1× PenStrep, beta2-mercaptoethanol, NEAA and sodium pyruvate. Following the 48-hour incubation, PBMC were pelleted and resuspended at a final concentration of 10^6/ml with indicated soluble drug. Treatment was allowed for 48 hours then supernatant was harvested and assessed in IL-2 and IFNγ ELISA according to manufacturer's protocol (BioLegend).
Positive controls included CD28 superagonist anti-CD28 clone TGN1412 as IgG1 and IgG4 isotypes and anti-CD3. […] Values shown are the average of 3 technical replicates. D=Donor.

[2] = system: EMT6 murine breast cancer cells; assay: EMT6 murine breast cancer model; format: in vivo, mouse; conditions: for Day 17 tumor volume: Days 0 and 3; for % tumor growth inhibition: Day 17; for # IFNγ-producing spots, Spleen / # IFNγ-producing spots, TDLN: average of n = 4 mice; for CD8^+ T cell infiltrates (% CD45): EMT6, n=4
Method: EMT6 murine breast cancer cells (3×10^5) were orthotopically implanted in the mammary fat pad of female Balb/c mice. When tumors reached ˜90 mm^3 (day 5 after implantation), mice were randomized. PBS vehicle control or variant CD80-Fc fusion proteins were dosed intravenously at 0.01, 0.1, 1.0 and 3.0 mg/kg on Days 0 and 3. Tumor volume was determined by caliper measurements obtained in 2 dimensions and calculated as width^2×length/2. Error bars are depicted as ±SEM.
Tumor-reactive T cells in the spleen and tumor-draining lymph nodes (TDLNs) were measured by IFNγ ELIspot in mice treated with CD80-K89D-D90K-T28V-T57V-Fc.
Cytotoxic CD8^+ T cells are responsible for killing cancer cells and the measurement of CD8^+ T cells that have infiltrated tumors commonly correlates with efficacy for immune-oncology therapies. For all in vivo studies, tumors were collected ˜1 week after the first dose and dissociated by mincing, followed by incubation in an enzymatic digestion cocktail and homogenization. The resulting cell suspension was filtered and washed, and single cells were stained with antibodies to CD45, CD8, and a viability dye to detect tumor-infiltrating lymphocytes (TILs) by flow cytometry. Data were acquired on a BD LSRFortessa flow cytometer or a Cytek Aurora spectral flow cytometer. Table 31 and FIG. 18 show the amount of tumor-infiltrating CD8+ T cells expressed as a percentage of total immune cells (CD45+). Each value is the average of n=4 mice per group. Treatment with all variant CD80-Fc fusion proteins led to increase in CD8+ TILs in various tumor models.

CD80-K89D-D90K-T28V-T57V-Fc: non-cysteine stabilized variant CD80-Fc fusion protein (K89D, D90K, T28V, T57V)
IL-2 ([1]; Table 21, D132, 1.9 μg/ml): 0.0 | IL-2 ([1]; Table 21, D132, 5.6 μg/ml): 0.3 | IL-2 ([1]; Table 21, D132, 16.7 μg/ml): 0.7 | IL-2 ([1]; Table 21, D132, 50 μg/ml): 3.7 | IL-2 ([1]; Table 21, D149, 1.9 μg/ml): 0.0 | IL-2 ([1]; Table 21, D149, 5.6 μg/ml): 0.0 | IL-2 ([1]; Table 21, D149, 16.7 μg/ml): 3.7 | IL-2 ([1]; Table 21, D149, 50 μg/ml): 0.3 | IL-2 ([1]; Table 21, D379, 1.9 μg/ml): 2.3 | IL-2 ([1]; Table 21, D379, 5.6 μg/ml): 0.0 | IL-2 ([1]; Table 21, D379, 16.7 μg/ml): 0.0 | IL-2 ([1]; Table 21, D379, 50 μg/ml): 0.0 | IL-2 ([1]; Table 21, D399, 1.9 μg/ml): 0.0 | IL-2 ([1]; Table 21, D399, 5.6 μg/ml): 0.0 | IL-2 ([1]; Table 21, D399, 16.7 μg/ml): 0.0 | IL-2 ([1]; Table 21, D399, 50 μg/ml): 0.0 | IL-2 ([1]; Table 21, D417, 1.9 μg/ml): 0.0 | IL-2 ([1]; Table 21, D417, 5.6 μg/ml): 0.0 | IL-2 ([1]; Table 21, D417, 50 μg/ml): 0.0 | IL-2 ([1]; Table 21, D518, 1.9 μg/ml): 1.3 | IL-2 ([1]; Table 21, D518, 5.6 μg/ml): 0.3 | IL-2 ([1]; Table 21, D518, 16.7 μg/ml): 0.0 | IL-2 ([1]; Table 21, D518, 50 μg/ml): 3.0 | IFNγ ([1]; Table 22, D132, 1.9 μg/ml): 0.0 | IFNγ ([1]; Table 22, D132, 5.6 μg/ml): 0.0 | IFNγ ([1]; Table 22, D132, 16.7 μg/ml): 41.3 | IFNγ ([1]; Table 22, D132, 50 μg/ml): 0.0 | IFNγ ([1]; Table 22, D149, 1.9 μg/ml): 0.0 | IFNγ ([1]; Table 22, D149, 5.6 μg/ml): 0.0 | IFNγ ([1]; Table 22, D149, 16.7 μg/ml): 0.0 | IFNγ ([1]; Table 22, D149, 50 μg/ml): 12.3 | IFNγ ([1]; Table 22, D379, 1.9 μg/ml): 2.0 | IFNγ ([1]; Table 22, D379, 5.6 μg/ml): 0.0 | IFNγ ([1]; Table 22, D379, 50 μg/ml): 0.0 | IFNγ ([1]; Table 22, D399, 1.9 μg/ml): 0.0 | IFNγ ([1]; Table 22, D399, 5.6 μg/ml): 0.0 | IFNγ ([1]; Table 22, D399, 16.7 μg/ml): 0.0 | IFNγ ([1]; Table 22, D399, 50 μg/ml): 13.7 | IFNγ ([1]; Table 22, D417, 1.9 μg/ml): 0.0 | IFNγ ([1]; Table 22, D417, 5.6 μg/ml): 94.3 | IFNγ ([1]; Table 22, D417, 16.7 μg/ml): 0.0 | IFNγ ([1]; Table 22, D417, 50 μg/ml): 0.0 | IFNγ ([1]; Table 22, D518, 1.9 μg/ml): 0.0 | IFNγ ([1]; Table 22, D518, 5.6 μg/ml): 0.0 | IFNγ ([1]; Table 22, D518, 16.7 μg/ml): 0.0 | IFNγ ([1]; Table 22, D518, 50 μg/ml): 0.0 | Day 17 tumor volume ([2]; 0.01 mg/kg IV): 1552.0 mm^3 | % tumor growth inhibition ([2]; 0.01 mg/kg): 0.4% | # IFNγ-producing spots, Spleen ([2]; 0.01 mg/kg): 123.1 | # IFNγ-producing spots, TDLN ([2]; 0.01 mg/kg): 51.9 | Day 17 tumor volume ([2]; 0.1 mg/kg IV): 981.2 mm^3 | % tumor growth inhibition ([2]; 0.1 mg/kg): 39.0% | # IFNγ-producing spots, Spleen ([2]; 0.1 mg/kg): 117.9 | # IFNγ-producing spots, TDLN ([2]; 0.1 mg/kg): 132.3 | Day 17 tumor volume ([2]; 1 mg/kg IV): 818.8 mm^3 | % tumor growth inhibition ([2]; 1 mg/kg): 50.1% | # IFNγ-producing spots, Spleen ([2]; 1 mg/kg): 336.4 | # IFNγ-producing spots, TDLN ([2]; 1 mg/kg): 475.2 | Day 17 tumor volume ([2]; 3 mg/kg IV): 133.4 mm^3 | % tumor growth inhibition ([2]; 3 mg/kg): 96.6% | # IFNγ-producing spots, Spleen ([2]; 3 mg/kg): 427.7 | # IFNγ-producing spots, TDLN ([2]; 3 mg/kg): 540.9 | CD8^+ T cell infiltrates (% CD45) ([2]; 0.01 mg/kg): 3.98 % CD45 | CD8^+ T cell infiltrates (% CD45) ([2]; 0.1 mg/kg): 9.59 % CD45 | CD8^+ T cell infiltrates (% CD45) ([2]; 1 mg/kg): 15.91 % CD45 | CD8^+ T cell infiltrates (% CD45) ([2]; 3 mg/kg): 8.19 % CD45

CD80-WT-Fc: wild-type human CD80 extracellular domain fused to human IgG1 Fc (C220S) [reference compound]
IFNγ ([1]; Table 20, D222, 1 μg/ml): 4.3 | IL-2 ([1]; Table 20, D222, 1 μg/ml): 7.7 | IFNγ ([1]; Table 20, D222, 10 μg/ml): 3.3 | IL-2 ([1]; Table 20, D222, 10 μg/ml): 9.3 | IFNγ ([1]; Table 20, D281, 1 μg/ml): 3.0 | IL-2 ([1]; Table 20, D281, 1 μg/ml): 3.0 | IFNγ ([1]; Table 20, D281, 10 μg/ml): 3.3 | IL-2 ([1]; Table 20, D281, 10 μg/ml): 2.0 | IFNγ ([1]; Table 20, D462, 1 μg/ml): 6.0 | IL-2 ([1]; Table 20, D462, 1 μg/ml): 1.7 | IFNγ ([1]; Table 20, D462, 10 μg/ml): 7.3 | IL-2 ([1]; Table 20, D462, 10 μg/ml): 2.0 | IFNγ ([1]; Table 20, D547, 1 μg/ml): 4.0 | IL-2 ([1]; Table 20, D547, 1 μg/ml): 9.0 | IFNγ ([1]; Table 20, D547, 10 μg/ml): 3.3 | IL-2 ([1]; Table 20, D547, 10 μg/ml): 5.3 | IL-2 ([1]; Table 21, D132, 1.9 μg/ml): 0.0 | IL-2 ([1]; Table 21, D132, 5.6 μg/ml): 0.0 | IL-2 ([1]; Table 21, D132, 16.7 μg/ml): 0.3 | IL-2 ([1]; Table 21, D149, 1.9 μg/ml): 0.3 | IL-2 ([1]; Table 21, D149, 5.6 μg/ml): 4.3 | IL-2 ([1]; Table 21, D149, 16.7 μg/ml): 0.0 | IL-2 ([1]; Table 21, D149, 50 μg/ml): 0.0 | IL-2 ([1]; Table 21, D379, 1.9 μg/ml): 3.3 | IL-2 ([1]; Table 21, D379, 50 μg/ml): 0.3 | IL-2 ([1]; Table 21, D399, 1.9 μg/ml): 0.0 | IL-2 ([1]; Table 21, D399, 5.6 μg/ml): 0.0 | IL-2 ([1]; Table 21, D399, 16.7 μg/ml): 0.0 | IL-2 ([1]; Table 21, D399, 50 μg/ml): 3.0 | IL-2 ([1]; Table 21, D417, 1.9 μg/ml): 5.7 | IL-2 ([1]; Table 21, D417, 5.6 μg/ml): 10.7 | IL-2 ([1]; Table 21, D417, 16.7 μg/ml): 0.3 | IL-2 ([1]; Table 21, D417, 50 μg/ml): 0.3 | IL-2 ([1]; Table 21, D518, 1.9 μg/ml): 4.7 | IL-2 ([1]; Table 21, D518, 5.6 μg/ml): 4.7 | IL-2 ([1]; Table 21, D518, 16.7 μg/ml): 1.3 | IL-2 ([1]; Table 21, D518, 50 μg/ml): 2.7 | IFNγ ([1]; Table 22, D132, 1.9 μg/ml): 14.3 | IFNγ ([1]; Table 22, D132, 5.6 μg/ml): 0.0 | IFNγ ([1]; Table 22, D132, 16.7 μg/ml): 0.0 | IFNγ ([1]; Table 22, D132, 50 μg/ml): 12.3 | IFNγ ([1]; Table 22, D149, 5.6 μg/ml): 0.0 | IFNγ ([1]; Table 22, D149, 16.7 μg/ml): 0.0 | IFNγ ([1]; Table 22, D149, 50 μg/ml): 5.7 | IFNγ ([1]; Table 22, D379, 1.9 μg/ml): 0.3 | IFNγ ([1]; Table 22, D379, 5.6 μg/ml): 0.0 | IFNγ ([1]; Table 22, D379, 16.7 μg/ml): 0.0 | IFNγ ([1]; Table 22, D379, 50 μg/ml): 0.0 | IFNγ ([1]; Table 22, D399, 1.9 μg/ml): 0.0 | IFNγ ([1]; Table 22, D399, 5.6 μg/ml): 0.0 | IFNγ ([1]; Table 22, D399, 16.7 μg/ml): 0.0 | IFNγ ([1]; Table 22, D399, 50 μg/ml): 18.3 | IFNγ ([1]; Table 22, D417, 1.9 μg/ml): 0.0 | IFNγ ([1]; Table 22, D417, 5.6 μg/ml): 146.7 | IFNγ ([1]; Table 22, D417, 16.7 μg/ml): 13.3 | IFNγ ([1]; Table 22, D417, 50 μg/ml): 0.0 | IFNγ ([1]; Table 22, D518, 1.9 μg/ml): 0.0 | IFNγ ([1]; Table 22, D518, 5.6 μg/ml): 0.0 | IFNγ ([1]; Table 22, D518, 16.7 μg/ml): 0.0 | IFNγ ([1]; Table 22, D518, 50 μg/ml): 0.0
